B1: Protein piwi (Drosophila melanogaster (Fruit fly)), Q9VKM1 (parent)
chain: MADDQGRGRRRPLNEDDSSTSRGSGDGPRVKVFRGSSSGDPRADPRIEASRERRALEEAPRREGGPTERKPWGDQYDYLNTRPAELVSKKGTDGVPVMLQTNFFRLKTKPEWRIVHYHVEFEPSIENPRVRMGVLSNHANLLGSGYLFDGLQLFTTRKFEQEITVLSGKSKLDIEYKISIKFVGFISCAEPRFLQVLNLILRRSMKGLNLELVGRNLFDPRAKIEIREFKMELWPGYETSIRQHEKDILLGTEITHKVMRTETIYDIMRRCSHNPARHQDEVRVNVLDLIVLTDYNNRTYRINDVDFGQTPKSTFSCKGRDISFVEYYLTKYNIRIRDHNQPLLISKNRDKALKTNASELVVLIPELCRVTGLNAEMRSNFQLMRAMSSYTRMNPKQRTDRLRAFNHRLQNTPESVKVLRDWNMELDKNVTEVQGRIIGQQNIVFHNGKVPAGENADWQRHFRDQRMLTTPSDGLDRWAVIAPQRNSHELRTLLDSLYRAASGMGLRIRSPQEFIIYDDRTGTYVRAMDDCVRSDPKLILCLVPNDNAERYSSIKKRGYVDRAVPTQVVTLKTTKNRSLMSIATKIAIQLNCKLGYTPWMIELPLSGLMTIGFDIAKSTRDRKRAYGALIASMDLQQNSTYFSTVTECSAFDVLANTLWPMIAKALRQYQHEHRKLPSRIVFYRDGVSSGSLKQLFEFEVKDIIEKLKTEYARVQLSPPQLAYIVVTRSMNTRFFLNGQNPPPGTIVDDVITLPERYDFYLVSQQVRQGTVSPTSYNVLYSSMGLSPEKMQKLTYKMCHLYYNWSGTTRVPAVCQYAKKLATLVGTNLHSIPQNALEKKFYYL
partner: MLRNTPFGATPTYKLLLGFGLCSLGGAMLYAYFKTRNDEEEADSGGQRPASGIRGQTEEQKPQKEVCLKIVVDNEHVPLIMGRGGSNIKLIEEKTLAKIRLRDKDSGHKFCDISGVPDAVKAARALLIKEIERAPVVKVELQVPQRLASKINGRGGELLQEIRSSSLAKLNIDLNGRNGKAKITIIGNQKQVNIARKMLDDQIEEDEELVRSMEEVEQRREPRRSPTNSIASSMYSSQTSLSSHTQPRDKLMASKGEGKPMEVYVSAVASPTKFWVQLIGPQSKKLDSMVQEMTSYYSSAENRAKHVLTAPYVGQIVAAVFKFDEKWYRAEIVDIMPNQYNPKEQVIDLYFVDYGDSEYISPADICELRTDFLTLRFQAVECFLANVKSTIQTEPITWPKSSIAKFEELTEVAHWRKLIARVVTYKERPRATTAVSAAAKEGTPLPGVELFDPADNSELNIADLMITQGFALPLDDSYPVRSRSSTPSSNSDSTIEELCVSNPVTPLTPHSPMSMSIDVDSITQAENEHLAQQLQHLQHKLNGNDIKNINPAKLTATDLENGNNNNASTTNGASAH
B2: Protein argonaute-3 (Drosophila melanogaster (Fruit fly)), Q7PLK0 (parent)
chain: MSGRGNLLSLFNKNAGNMGKSISSKDHEIDSGLDFNNSESSGERLLSSHNIETDLITTLQHVNISVGRGRARLIDTLKTDDHTSNQFITSESKENITKKTKGPESEAIASENGLFFPDLIYGSKGSSVNIYCNYLKLTTDESKGVFNYEVRFFPPIDSVHLRIKYLNDHKDKLGGTKTFDGNTLYLPILLPNKMTVFISKAEDVELQIRILYKKKEEMRNCTQLYNILFDRVMKVLNYVKFDRKQFDPSRPKIIPLAKLEVWPGYVTAVDEYKGGLMLCCDVSHRILCQKTVLEMLVDLYQQNVEHYQESARKMLVGNIVLTRYNNRTYKINDICFDQNPTCQFEIKTGCTSYVEYYKQYHNINIKDVNQPLIYSIKKSRGIPAERENLQFCLIPELCYLTGLRDEVRSDNKLMREIATFTRVSPNQRQMALNKFYENVSNTPAAQEILNSWGLSLTNNSNKISGRQMDIEQIYFSKISVSAGRSAEFSKHAVTNEMLKVVHLSKWIIIHLRNYRQAATSLLDNMKQACESLGMNISNPTMISLDHDRIDAYIQALRRNITMNTQMVVCICHNRRDDRYAAIKKICCSEIPIPSQVINAKTLQNDLKIRSVVQKIVLQMNCKLGGSLWTVKIPFKNVMICGIDSYHDPSNRGNSVAAFVASINSSYSQWYSKAVVQTKREEIVNGLSASFEIALKMYRKRNGKLPTNIIIYRDGIGDGQLYTCLNYEIPQFEMVCGNRIKISYIVVQKRINTRIFSGSGIHLENPLPGTVVDQHITKSNMYDFFLVSQLVRQGTVTPTHYVVLRDDCNYGPDIIQKLSYKLCFLYYNWAGTVRIPACCMYAHKLAYLIGQSIQRDVAEALSEKLFYL
partner: B1 partner

Variants of: B1
Settings: with tdrkh_drome papi

effect of a mutation on the interaction | Variant
disrupting interaction strength | R7K;R9K

Variants of: B2
Settings: with tdrkh_drome papi

effect of a mutation on the interaction | Variant
disrupting interaction strength | R68K;R70K;R72K
